Experimental data taken from a protein production outcome set (Wang et al. 2014).

Assay: label from the status in PepcDB records

Row | Sequence | protein production
1 | MLKIYVVDNGGQWTHREWRVLRELGVDTKIVPNDIDSSELDGLDGLVLSGGAPNIDEELDKLGSVGKYIDDHNYPILGICVGAQFIALHFGASVVKAKHPEFGKTKVSVMHSENIFGGLPSEITVWENHNDEIINLPDDFTLAASSATCQVQGFYHKTRPIYATQFHPEVEHTQYGRDIFRNFIGICASYREIQKENFQH | not failed
2 | MLKKITCYTVLYIFILLNQPIQAQTYVIPDANFKNYLALNIPYVLNSNQELIISNAKIFTGTINCVGMNIEDLSGLQYFYKLTQLNCNSNQLTFLPSLDSLKQLQHMWVYNNKLTSIPSVNQLTNLQTLNVKNNQLTNLPSLTGMTALKSLDCSSNKLTALPDLSTLLNLEEMYCYINFITNIPSVSNLLHLKIFNIENNAIALLPDISQNTKLEILQFDLNQIETIPPLTTLTALKQLIFAHNKISTLPDLSANTALFIITGDNNQLTHIPDLSGFDNLTHVELSHNQLTFEDILPSSKHPQFSTVFNIQPQDSLNVNQPVSAVKGSTITLPLQFDLAVSGSTYNWYKNNIYLSSTTIPVLTLSNITEMNAGRYTCIITNNTSRLTGITLHARSYSILVEPCIKFSYINYEITANDCSKGAAIQIDHTQISALNTPLTYALHPLNNQSSITSASAVLNDVMPGRYSLTISDVNNCSVELQNYIFIPVPAGCMDSFTPNGDGLEDTYLIDKPGYTKIYNKNGTLIRTLNTPAAWDGSDESGKLCPMGYYIIIIDGKEKTGVVLIN | failed
3 | MLKLAQAEEAEAKRGKLKIFLGYAAGVGKTYAMLQAARERRHEGRDVVAAYVESHGRPETDALLEGLEILPAARIEYQGVMLPELDIDGVLARRPQLALVDELAHTNAPGSRHEKRWQDVEELLAAGIDVFTTVNVQHFESLNDVVAQITGIAVRETVPDRLLDLAAEIRLVDIPPEDLLQRLREGKVYVPEQAAFAAEKFFRAGNLIALRELSLRRAAVRVDEEMRAYMEARAIPGPWPAAERLLVSISGSPFSERLIRTTRRLADELKAPWFTVYVETPGNGRHEQENRKRVWKDLRLAESLGAQVATVTATSVAEALIDYARRHNVTRIVVGKPAKPRWREFLRLPLVDRIIRLSGAIDVHVVSYEPAEAGKGPVLPVRRGPISFSGYLASLALVVAASLACLLLRPFLAPTNMVMIYLLAVVLAALRLGLKPAILTAFLGVLAFDFFFIPPHLTFAVADTQYLITFVALFTVGVVISTLVSTVRERAEAVREREEQTASLYYLSRDLAAAADIETLVAAVIRNIGETLFARAAVLLPEGDRLRVAAASKGLKPDVKEMAVADWAFRNRQTAGQGTETLASAGFLYLPLQTSGSVLGVLGVRLKNDADYRSTQVRRMLDAFTSQTAMALERVQLSRQAEQAQILQARENLERALLNSISHDLRTPLVAITGALDTLRDKVHTLADESRLELLDTAWEEAERLNRFVGNLLDMTRLESGAIKLKRELSDVQDLIGCALAALERRIGERGIDVRLAPDLPLVRIDMVLMTQVLVNLLDNALKYSPPDSGVEITARVDGGRLRIEMADRGPGIPEQDLKRVFDKFYRIAVPEGAQGTGLGLSICKGIVEAHGGSIRAENRTGGGLRVIVTLPLAGGAKEGVSHGP | failed
4 | MLKNLRIRKFEPEEEYVHFTYSIKNSEREKSKELIKEYRTLLQKAIDYLWNLTKIQVRKKNGSYKITLPKKKEVYKPLREELEKINHLASHYVDKAINDAFSILKSWRKRAIKGRASIEKPTLKKAYVRIKTTLRKVVGESVRITVRPYEYITFSWSKSWFSRRVRELELGEPIIKEEKVYLPFRYKLPWVTPVNFLAIDSNLYTLDAYDGEKFVTISLKQLYSLKYSMEVKRAKVQSFASKHTKRGRELMRKYSHRERNRVLDFVHKFVNTLLDLYPMTFFAVEKLNKESMFKDANGSLSRKISRTVWRSIHRVLKYKAPLYGSFVKEVNPHLTSRSCPRCGFVSRKVGKTFECERCGFKLDRQLNASLNIYLKMCGFPHIRDIPRVWVGVIPLMGRRGMNVRDFGEAQGLRIDIKYHEILLEHHHHHH | failed
5 | MLKNLRLKSFQPEEEYVHFTYSIKNDKREESKELIKEYTTLLQKAIDYLWSLTKIQVRKNGNYKITLPKKKEVYKPLRDELEKINHLASHYVDKAINDAFSILKSWRKRAIKGRASIEKPRVKKAYVRIKTTLRKVVGESVRITVRPYEYITFSWSKSWFSRRVRELELGEPIIKEEKVYLPFRYKLPWATPLNFLAIDSNLYTLDAYDGEKFVTISLKQLYSLKYSMEVKRAKVQSFASKHTKRGRELLRKYSHRERNRVLDFVHKFVNALLDLYPMTFFAVEKLNKESMFVDANDSLSRKISRTVWRSIHRVLKYKAPLYGSFVKEVNPRFTSRSCPRCGFVSRKVGKTFECERCGFKLDRQLNASLNIYLKMCGFPHIRDIARVWVGVIPLMGRRGMNGFPRDFGEAQGLRIDIKYHEIP | failed
6 | MLKPMYYEFFFIFPKERELFESFLLDATHLALEESSLENLKAFDDKETIGFISQSNWHYFATHDPLKKDLKENLKEKPPHLKNFVILRSQKDLNNSLIPALEAFCLNLKQNLQSEFDFFYLSRNLASKDWLEAYKQAILPVQCTKFYIHPSWHQKPSHVVTNDCIMIDPALAFGSGHHESTSMCLELLSDIDLKRKNALDVGCGSGILSIALKKQGVSALVACDTDSLAVEETLKNFSLNQIPLLVQDKVIYGSTQKIEGRFDVIVANLVADVIKSLYSEFVRLCNHTLILSGILETHLNSVLQIYYNGFEVLEQRQRNEWVALKLLKKQPIN | failed
7 | MLKRASFVEVDTASLRHNFSAVKSIVPKDACVMAVVKANAYGAGAIKASEIFLQEGANYLGVATLDEALELRSHFSKTPILILGYSPNANASMLVDNDLSAMIFSLEQAEVFSQMALKSQKRLKVHIKIDTGMHRLGLEPNFKSIETIKKIRALKGLEIEGIFTHLSNADAKIKTHAKNQMKAFNAFLEQLLDQKIEFQYRHAYNSAGILSLCNGNENRLLNLYRPGIMLYGFYPSNGMKESCPTILKNVISLKAQIVQIRSVKKGEFIGYGEHFYTNEETLVGVLALGYADGLMRALGNRIQVAINNQLAPLIGKVCMDQCFVKLNNIQAKEGDEVILFGDKSAKANDASEIXALLNTIAYETISTLSKRLERVYI | failed
8 | MLKTSALAPCGKPMLIWPSQTSARRHGFSEASYCLWRSKFGGMSMPDAKRLKDLEAENTRLKKLLAEQVFQNDLIKDALQKMVSAPARRALVREWIAGGASERCALAAIGMSASALRYRPREDRNVELRERILALAHRHRRYGVGMISLKLRQEGRLVNYKRVERLYCEQQLQVRRRKRKKVPLGERAPLLRPTKANPVWSMDVVFDRTAEGRAIKCLVIVDDATHEAVAIDVERAISGHGVVRVLDRLAHSRGLPKMIRTDNGKEFCGKAMVAWAHANRVQLRQIQPGKPNQNAYVESFNGRLRDECLNKHGFPTLLHARTEIERWRREYNEHRPKKTIGGMTPAAYAQQLANSDIINPGL | failed
9 | MLKTTKKSLLVFMGVFFLIFGVDQAIKYAILEGFRYESLMIDIVLVFNKGVAFSLLSFLEGGLKYLQILLILGLFIFLMRQRELFKNHAIEFGMVFGAGVSNVLDRFVHGGVVDYVYYHYGFDFAIFNFADVMIDVGVGVLLLKQFFFKQKQNKIKA | failed
10 | MLKTVHQKAGRHTRPVRAWLKLLWQRIDEDNMTTLAGNLAYVSLLSLVPLIAVVFALFAAFPMFSDVSIQLRHFIFANFMPATGDVIQRYIEQFVANSNKMTAVGACGLIVTALLLMYAIDSALNTIWRSKRTRPKVYSFAVYWMILTLGPLLAGASLAISSYLLSLRWASDLNTVIDNVLRILPLLLSWISFWLLYSIVPTTRVPNRDALVGAFVAALLFEAGKKGFALYITMFPSYQLIYGVLAVIPILFVWVYWTWCIVLLGAEITVTLGEYRKLKQAAEQEEADQP | failed
11 | MLKTVKLYARKAWNWLTSMRTALALLFLLAIAAIPGALLPQRSLNESNVIEYIENNGKLAEFYDKIQLFDVFSSTWFTAIYVLLLISLVGCILPRSWEHYKAMRAPVVRAPRNLERLAHNGEGLVEKREEEVEKDARKLLKGWKITEYSAEEDRAGVRSIAAEKGYTRELFNLIFHLGIVGMIVTAGLGRLFYYEGHVIVVTDGEQNQQNSVFCNTATANYDSFRAGANFDGTGLTTFCFEAHDFSADYLANGQAEMFRSNISYAVGDDIQNDPETWEDYELRVNHPLRIEGDRVYLQGHGFAPTFTVTWPNGETRTQTVQWRPDDPTFFLSSGVVRFDPPAGMYPDLYERRQNQLAIQGLFAPTAEWEGDNNELLTSSYPAMRDPAVAIDIYRGDNGLDTGIGQSLFSLDSSLMHSGVLQKIERVNLQIGDTVTLDDGTTVSFDGASEFANYQISRDPTQNWVLVTTVISLVSLVGSLMIRRRRIWVRFYPQENGTTRVETGGLARTDRAGWGGEYEKFHRELLGLKEEDEDEEYFDHDD | failed
